Data as given in doi:10.1101/2025.03.22.644726.

Tests used:
[1] = target: HERC5 HECT domain (UniProt Q9UII4); assay: SEC
[2] = target: HERC5 HECT domain (UniProt Q9UII4); assay: SAXS

HERC5 HECT domain (from UniProt Q9UII4 702-1024) (domain or fragment)
stoichiometry N [1]: 3
stoichiometry N [2]: 3
